Test results as given in IntAct's records for PubMed 20682316.

B1: Oxysterols receptor LXR-alpha (Homo sapiens), Q13133 (parent)
chain: MSLWLGAPVPDIPPDSAVELWKPGAQDASSQAQGGSSCILREEARMPHSAGGTAGVGLEAAEPTALLTRAEPPSEPTEIRPQKRKKGPAPKMLGNELCSVCGDKASGFHYNVLSCEGCKGFFRRSVIKGAHYICHSGGHCPMDTYMRRKCQECRLRKCRQAGMREECVLSEEQIRLKKLKRQEEEQAHATSLPPRASSPPQILPQLSPEQLGMIEKLVAAQQQCNRRSFSDRLRVTPWPMAPDPHSREARQQRFAHFTELAIVSVQEIVDFAKQLPGFLQLSREDQIALLKTSAIEVMLLETSRRYNPGSESITFLKDFSYNREDFAKAGLQVEFINPIFEFSRAMNELQLNDAEFALLIAISIFSADRPNVQDQLQVERLQHTYVEALHAYVSIHHPHDRLMFPRMLMKLVSLRTLSSVHSEQVFALRLQDKKLPPLLSEIWDVHE
B2: Retinoic acid receptor RXR-alpha (Homo sapiens), P19793 (parent)
chain: MDTKHFLPLDFSTQVNSSLTSPTGRGSMAAPSLHPSLGPGIGSPGQLHSPISTLSSPINGMGPPFSVISSPMGPHSMSVPTTPTLGFSTGSPQLSSPMNPVSSSEDIKPPLGLNGVLKVPAHPSGNMASFTKHICAICGDRSSGKHYGVYSCEGCKGFFKRTVRKDLTYTCRDNKDCLIDKRQRNRCQYCRYQKCLAMGMKREAVQEERQRGKDRNENEVESTSSANEDMPVERILEAELAVEPKTETYVEANMGLNPSSPNDPVTNICQAADKQLFTLVEWAKRIPHFSELPLDDQVILLRAGWNELLIASFSHRSIAVKDGILLATGLHVHRNSAHSAGVGAIFDRVLTELVSKMRDMQMDKTELGCLRAIVLFNPDSKGLSNPAEVEALREKVYASLEAYCKHKYPEQPGRFAKLLLRLPALRSIGLKCLEHLFFFKLIGDTPIDTFLMEMLEAPHQMT

Variants of: B1
Settings: with ncoa1_human NCOA1, Q15788
Target sequence in this assay (Q15788 whole entry): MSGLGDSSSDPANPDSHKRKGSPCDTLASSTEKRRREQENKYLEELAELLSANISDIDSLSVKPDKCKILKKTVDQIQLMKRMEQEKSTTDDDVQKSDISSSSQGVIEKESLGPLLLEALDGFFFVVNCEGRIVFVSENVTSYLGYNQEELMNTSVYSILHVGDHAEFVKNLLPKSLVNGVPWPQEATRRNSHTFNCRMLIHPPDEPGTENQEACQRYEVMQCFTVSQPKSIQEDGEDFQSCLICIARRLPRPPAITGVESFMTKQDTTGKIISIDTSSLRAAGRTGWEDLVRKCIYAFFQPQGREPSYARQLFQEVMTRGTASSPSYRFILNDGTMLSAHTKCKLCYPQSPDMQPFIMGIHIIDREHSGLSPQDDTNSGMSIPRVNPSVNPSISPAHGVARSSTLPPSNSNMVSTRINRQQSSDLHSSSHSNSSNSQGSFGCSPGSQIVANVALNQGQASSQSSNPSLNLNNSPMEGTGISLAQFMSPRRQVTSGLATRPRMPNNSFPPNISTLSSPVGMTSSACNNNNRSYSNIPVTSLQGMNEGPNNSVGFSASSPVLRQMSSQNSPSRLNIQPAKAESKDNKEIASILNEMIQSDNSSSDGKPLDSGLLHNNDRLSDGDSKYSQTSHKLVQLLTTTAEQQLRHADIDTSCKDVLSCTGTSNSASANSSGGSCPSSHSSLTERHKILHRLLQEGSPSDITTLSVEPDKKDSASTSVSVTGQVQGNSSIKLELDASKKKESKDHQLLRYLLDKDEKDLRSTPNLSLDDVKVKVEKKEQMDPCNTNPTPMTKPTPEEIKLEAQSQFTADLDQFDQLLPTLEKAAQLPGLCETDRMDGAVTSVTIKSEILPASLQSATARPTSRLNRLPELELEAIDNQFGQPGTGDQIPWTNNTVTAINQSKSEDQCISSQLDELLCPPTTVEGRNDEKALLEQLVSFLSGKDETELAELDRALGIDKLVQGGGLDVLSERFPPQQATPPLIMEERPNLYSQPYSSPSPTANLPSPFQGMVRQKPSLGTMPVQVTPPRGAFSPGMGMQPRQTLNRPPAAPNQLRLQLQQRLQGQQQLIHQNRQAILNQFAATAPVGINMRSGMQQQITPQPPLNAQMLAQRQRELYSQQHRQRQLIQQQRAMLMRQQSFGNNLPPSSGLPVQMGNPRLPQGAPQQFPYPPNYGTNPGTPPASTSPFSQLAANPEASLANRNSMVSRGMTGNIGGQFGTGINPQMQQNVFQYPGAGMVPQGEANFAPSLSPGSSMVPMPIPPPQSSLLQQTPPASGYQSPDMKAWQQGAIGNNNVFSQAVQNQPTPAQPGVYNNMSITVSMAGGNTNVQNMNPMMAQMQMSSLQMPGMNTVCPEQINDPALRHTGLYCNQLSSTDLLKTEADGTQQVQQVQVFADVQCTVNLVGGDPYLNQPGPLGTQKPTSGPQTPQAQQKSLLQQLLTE

effect of a mutation on the interaction	Variant
disrupting interaction	MSLWLGAPVPDIPPDSAVELWKPGAQDASSQAQGGSSCILREEARMPHSAGGTAGVGLEAAEPTALLTRAEPPSEPTEIRPQKRKKGPAPKMLGNELCSVCGDKASGFHYNVLSCEGCKGFFRRSVIKGAHYICHSGGHCPMDTYMRRKCQECRLRKCRQAGMREECVLSEEQIRLKKLKRQEEEQAHATSLPPRASSPPQILPQLSPEQLGMIEKLVAAQQQCNRRSFSDRLRVTPWPMAPDPHSREARQQRFAHFTELAIVSVQEIVDFAKQLPGFLQLSREDQIALLKTSAIEVMLLETSRRYNPGSESITFLKDFSYNREDFAKAGLQVEFINPIFEFSRAMNELQLNDAEFALLIAISIFSADRPNVQDQLQVERLQHTYVEALHAYVSIHHPHDRLMFPRMLMKLVSLRTLSSVHSEQVFALRLQDKKLPPLLSEAWDVHE [I442A]
disrupting interaction	MSLWLGAPVPDIPPDSAVELWKPGAQDASSQAQGGSSCILREEARMPHSAGGTAGVGLEAAEPTALLTRAEPPSEPTEIRPQKRKKGPAPKMLGNELCSVCGDKASGFHYNVLSCEGCKGFFRRSVIKGAHYICHSGGHCPMDTYMRRKCQECRLRKCRQAGMREECVLSEEQIRLKKLKRQEEEQAHATSLPPRASSPPQILPQLSPEQLGMIEKLVAAQQQCNRRSFSDRLRVTPWPMAPDPHSREARQQRFAHFTELAIVSVQEIVDFAKQLPGFLQLSREDQIALLKTSAIEVMLLETSRRYNPGSESITFLKDFSYNREDFAKAGLQVEFINPIFEFSRAMNELQLNDAEFALLIAISIFSADRPNVQDQLQVERLQHTYVEALHAYVSIHHPHDRLMFPRMLMKLVSLRTLSSVHSEQVFALRLQDKKLPPLLSAIWDVHE [E441A]

Variants of: B1
Settings: with ncoa1_human NCOA1, Q15788
Remark: another data set of the same source
Target sequence in this assay (Q15788 whole entry): as the sequence (Q15788 whole entry) above

effect of a mutation on the interaction	Variant
disrupting interaction	MSLWLGAPVPDIPPDSAVELWKPGAQDASSQAQGGSSCILREEARMPHSAGGTAGVGLEAAEPTALLTRAEPPSEPTEIRPQKRKKGPAPKMLGNELCSVCGDKASGFHYNVLSCEGCKGFFRRSVIKGAHYICHSGGHCPMDTYMRRKCQECRLRKCRQAGMREECVLSEEQIRLKKLKRQEEEQAHATSLPPRASSPPQILPQLSPEQLGMIEKLVAAQQQCNRRSFSDRLRVTPWPMAPDPHSREARQQRFAHFTELAIVSVQEIVDFAAQLPGFLQLSREDQIALLKTSAIEVMLLETSRRYNPGSESITFLKDFSYNREDFAKAGLQVEFINPIFEFSRAMNELQLNDAEFALLIAISIFSADRPNVQDQLQVERLQHTYVEALHAYVSIHHPHDRLMFPRMLMKLVSLRTLSSVHSEQVFALRLQDKKLPPLLSEIWDVHE [K273A]

Variants of: B2
Settings: with ncoa1_human NCOA1, Q15788
Target sequence in this assay (Q15788 whole entry): as the sequence (Q15788 whole entry) above

effect of a mutation on the interaction	Variant
disrupting interaction	MDTKHFLPLDFSTQVNSSLTSPTGRGSMAAPSLHPSLGPGIGSPGQLHSPISTLSSPINGMGPPFSVISSPMGPHSMSVPTTPTLGFSTGSPQLSSPMNPVSSSEDIKPPLGLNGVLKVPAHPSGNMASFTKHICAICGDRSSGKHYGVYSCEGCKGFFKRTVRKDLTYTCRDNKDCLIDKRQRNRCQYCRYQKCLAMGMKREAVQEERQRGKDRNENEVESTSSANEDMPVERILEAELAVEPKTETYVEANMGLNPSSPNDPVTNICQAADKQLFTLVEWAARIPHFSELPLDDQVILLRAGWNELLIASFSHRSIAVKDGILLATGLHVHRNSAHSAGVGAIFDRVLTELVSKMRDMQMDKTELGCLRAIVLFNPDSKGLSNPAEVEALREKVYASLEAYCKHKYPEQPGRFAKLLLRLPALRSIGLKCLEHLFFFKLIGDTPIDTFLMEMLEAPHQMT [K284A]
